Source: patent publication US20190315859A1

B1: CD19×CD3 bi-specific antibody based on clone 7 (bispecific antibody, part only; not given: anti-CD3 scFv, linker, His tag, not shown: another chain or arm of the molecule; small tags and cut ends)
scFv: QPVLTQPPSVSVAPGKTARITCGGNNIGSESVHWYQQKPGQAPMVVIYYDSNRPSGIPERFSGSNSGNTATLTVSRVEAEDEADYYCQVWNSSSDHRGVFGGGTKLTVLGSRGGGGSGGGGSGGGGSLEMAEVQLVQSGAEVKKPGESLRISCKGSGYSFTSYWIGWVRQMPGKGLEWMGIIYPGDSDTRYSPSFQGQVTISADKSISTAYLQWSSLKASDTAMYYCARVTYSMDSYYFDSWGQGTLVTVSS
B2: CD19×CD3 bi-specific antibody based on clone 6 (bispecific antibody, part only; not given: anti-CD3 scFv arm, linker, His tag, not shown: another chain or arm of the molecule; small tags and cut ends)
scFv: QAVLTQPPSVSEAPRQRVTISCSGSSSNVGNNAVNWYQQVPGKAPKLLIYYDDLLSSGVSDRFSGSKSGTSASLAISGLQSEDEADYYCAAWDDSLNGPVFGGGTKLTVLGSRGGGGSGGGGSGGGGSLEMAEVQLVQSGAEVKKPGESLKISCKGSGYSFTSYWIGWVRQMPGKGLEWMGIIYPGDSDTRYSPSFQGQVTISADKSISTAYLQWSSLKASDTAMYYCARWSSTWDSMYMDYWGQGTLVTVSS
B3: CD19×CD3 bi-specific antibody based on variant clone 5-3 (bispecific antibody, part only; not given: anti-CD3 scFv, linker, His tag, not shown: another chain or arm of the molecule; small tags and cut ends)
scFv: LPVLTQPPSVSVAPGKTARITCGGNNIGSKSVHWYQQKPGQAPVLVVYDDSNRPSGIPERFSGSNSGNTATLTISRVEAGDEADYYCQVWDSSSEYVVFGGGTKLTVLGSRGGGGSGGGGSGGGGSLEMAEVQLVQSGAEVKKPGESLKISCKGSGYSFTSYWIGWVRQMPGKGLEWMGIIYPGDSDTRYSPSFQGQVTISADKSISTAYLQWSSLKASDTAMYYCARQVWGWQGGMYPRSNWWYNMDSWGQGTLVTVSS

Tests used:
[1] = biological target: human CD19 expressed on the cell surface (native format) (human) (UniProt P15391); experiment: flow cytometry, human PBMC gated on CD20+CD3- B cells, FITC anti-His detection
[2] = biological target: human CD19 expressed on the cell surface (native format) (human) (UniProt P15391); experiment: bi-specific antibody titration flow cytometry on Raji cells
[3] = biological target: human CD19 expressed on the cell surface (native format) (human) (UniProt P15391); experiment: apparent KD from bi-specific antibody titration flow cytometry on Raji cells

Sequence of human CD19 expressed on the cell surface (native format) (human) (P15391 20-488 limits assumed): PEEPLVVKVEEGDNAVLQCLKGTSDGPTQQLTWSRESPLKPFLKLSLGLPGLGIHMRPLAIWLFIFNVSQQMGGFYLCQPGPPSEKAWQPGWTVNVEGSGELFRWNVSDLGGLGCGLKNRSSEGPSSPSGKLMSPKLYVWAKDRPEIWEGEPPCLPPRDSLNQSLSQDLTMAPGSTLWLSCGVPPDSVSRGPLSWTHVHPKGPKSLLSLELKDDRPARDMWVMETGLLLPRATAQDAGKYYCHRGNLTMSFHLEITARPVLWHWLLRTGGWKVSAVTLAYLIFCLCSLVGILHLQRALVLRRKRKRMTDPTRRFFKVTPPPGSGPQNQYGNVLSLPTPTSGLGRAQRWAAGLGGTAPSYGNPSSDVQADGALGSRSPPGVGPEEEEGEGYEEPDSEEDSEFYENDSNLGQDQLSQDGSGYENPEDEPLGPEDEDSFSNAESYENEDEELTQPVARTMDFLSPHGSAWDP

| Binder | Mean Fluorescence Intensity (MFI) in FITC channel [1] [MFI] | EC50 [2] [µg/mL] | Kd [3] [nM] |
| --- | --- | --- | --- |
| B1 | 1880 |  |  |
| B2 | 2200 | 0.214 | 4.1 |
| B3 |  | 0.081 | 1.6 |
